Experimental data reported in paper PMC10195817, “Autophagy receptor NDP52 alters DNA conformation to modulate RNA polymerase II transcription” (Nature Communications, 2022).
Values joined by “and” are separate entries in the source; they are usually repeats but may differ in a detail not shown here. Equal values may be shown once.

What was measured:
[1] = target: the molecule itself; assay: MST; RED-tris-NTA labelled protein at 50 nM, unlabelled protein of the same construct titrated from 10 uM (16-step serial dilution), PBS, 15 min at room temperature; Monolith NT.115; oligomerisation, step of the constant not told
[2] = target: the molecule itself; assay: SEC-MALS; 100 ul at 1 mg/ml (NDP52-FL, CoCoA) or 5 mg/ml (NNDP52, CNDP52, ZFs); Superdex 200 (30 x 1 cm); 50 mM Tris pH 7.5, 150 mM NaCl, 1 mM DTT; room temperature
[3] = target: the molecule itself; assay: MST
[4] = target: T1, NDP52-FL (Human, UniProt Q13137 1-446); assay: fluorescence titration, competition; with and without ss40 competitor; Fluorescence: 100 nM DNA, 50 mM Tris-HCl pH 7.5, 150 mM NaCl, 1 mM DTT; EMSA: 50 mM Tris-HCl pH 7.5, 50 mM NaCl, 3 mM MgCl2, 5 min; temperature not stated; settings: protein: recombinant; tags: His-tag (pET151); chain copies: 2; label: 3' FAM (called FITC in Methods) on strand 1 for fluorescence; blunt
T1 sequence: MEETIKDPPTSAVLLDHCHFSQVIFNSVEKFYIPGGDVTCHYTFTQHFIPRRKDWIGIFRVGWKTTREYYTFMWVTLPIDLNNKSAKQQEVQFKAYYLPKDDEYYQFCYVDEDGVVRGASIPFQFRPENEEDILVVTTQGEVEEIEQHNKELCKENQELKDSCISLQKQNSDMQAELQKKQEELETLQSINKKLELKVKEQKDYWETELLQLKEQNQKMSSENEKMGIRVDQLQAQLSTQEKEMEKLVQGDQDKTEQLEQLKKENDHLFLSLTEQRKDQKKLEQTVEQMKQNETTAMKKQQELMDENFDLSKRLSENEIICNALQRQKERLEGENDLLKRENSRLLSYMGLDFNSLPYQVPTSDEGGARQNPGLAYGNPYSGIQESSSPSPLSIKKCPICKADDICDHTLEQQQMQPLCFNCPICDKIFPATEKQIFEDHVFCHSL

[5] = target: T1, NDP52-FL; assay: fluorescence titration; Fluorescence: 100 nM DNA, 50 mM Tris-HCl pH 7.5, 150 mM NaCl, 1 mM DTT; EMSA: 50 mM Tris-HCl pH 7.5, 50 mM NaCl, 3 mM MgCl2, 5 min; temperature not stated; settings: protein: recombinant, tags: His-tag (pET151), chain copies: 2, blunt
[6] = target: T2, CoCoA (Human, UniProt Q9P1Z2 1-691); assay: fluorescence titration; high affinity; Fluorescence: 100 nM DNA, 50 mM Tris-HCl pH 7.5, 150 mM NaCl, 1 mM DTT; EMSA: 50 mM Tris-HCl pH 7.5, 50 mM NaCl, 3 mM MgCl2, 5 min; temperature not stated; settings: protein: recombinant, tags: His-tag (pET151), chain copies: 2, blunt
T2 sequence: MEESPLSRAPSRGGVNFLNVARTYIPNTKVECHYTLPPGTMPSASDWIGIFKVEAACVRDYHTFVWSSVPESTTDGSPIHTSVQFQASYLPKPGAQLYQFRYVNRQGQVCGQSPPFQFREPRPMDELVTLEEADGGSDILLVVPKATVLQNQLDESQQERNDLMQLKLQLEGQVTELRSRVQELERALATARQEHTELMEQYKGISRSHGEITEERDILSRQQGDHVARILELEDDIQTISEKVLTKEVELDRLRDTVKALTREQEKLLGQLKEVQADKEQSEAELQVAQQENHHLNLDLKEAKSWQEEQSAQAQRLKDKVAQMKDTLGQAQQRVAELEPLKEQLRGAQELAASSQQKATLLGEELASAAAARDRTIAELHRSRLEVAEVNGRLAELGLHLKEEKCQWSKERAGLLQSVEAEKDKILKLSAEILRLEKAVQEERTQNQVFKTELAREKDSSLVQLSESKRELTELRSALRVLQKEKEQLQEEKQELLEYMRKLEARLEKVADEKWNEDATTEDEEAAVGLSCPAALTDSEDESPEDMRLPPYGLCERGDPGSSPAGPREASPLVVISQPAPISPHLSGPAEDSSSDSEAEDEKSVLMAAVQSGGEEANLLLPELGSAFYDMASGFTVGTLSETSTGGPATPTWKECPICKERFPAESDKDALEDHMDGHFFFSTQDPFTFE

[7] = target: T3, NDP52-FL (full-length NDP52/CALCOCO2), Q13137; assay: mass photometry; NDP52-FL alone, 50 mM Tris-HCl pH 7.5, 150 mM NaCl, OneMP mass photometer; results say 100 nM, methods say diluted to 10 nM; settings: remark: other sources report otherwise
T3 chain: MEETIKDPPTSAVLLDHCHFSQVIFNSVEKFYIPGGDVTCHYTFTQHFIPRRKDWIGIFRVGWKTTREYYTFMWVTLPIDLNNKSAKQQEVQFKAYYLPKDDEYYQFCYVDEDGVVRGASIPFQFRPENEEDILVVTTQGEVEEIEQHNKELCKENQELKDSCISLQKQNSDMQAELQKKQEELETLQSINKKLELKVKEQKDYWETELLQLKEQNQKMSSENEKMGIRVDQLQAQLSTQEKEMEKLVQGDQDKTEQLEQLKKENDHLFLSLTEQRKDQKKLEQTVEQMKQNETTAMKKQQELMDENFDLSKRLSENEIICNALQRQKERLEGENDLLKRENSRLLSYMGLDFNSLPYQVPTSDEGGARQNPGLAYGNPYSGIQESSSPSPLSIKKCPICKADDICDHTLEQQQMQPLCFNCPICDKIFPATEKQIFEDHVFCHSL

[8] = target: T3, NDP52-FL (full-length NDP52/CALCOCO2), …; assay: MST; RED-tris-NTA labelled protein at 50 nM, unlabelled protein of the same construct titrated from 10 uM (16-step serial dilution), PBS, 15 min at room temperature; Monolith NT.115; oligomerisation, step of the constant not told; settings: remark: other sources report otherwise
[9] = target: T3, NDP52-FL (full-length NDP52/CALCOCO2), …; assay: SEC-MALS; 100 ul at 1 mg/ml (NDP52-FL, CoCoA) or 5 mg/ml (NNDP52, CNDP52, ZFs); Superdex 200 (30 x 1 cm); 50 mM Tris pH 7.5, 150 mM NaCl, 1 mM DTT; room temperature; settings: remark: other sources report otherwise
[10] = target: T3, NDP52-FL (full-length NDP52/CALCOCO2), …; assay: AFM imaging; purified protein adsorbed on mica (poly-L-lysine), imaged in liquid, PeakForce Tapping; monomers and oligomers counted by hand; settings: remark: other sources report otherwise
[11] = target: the molecule itself; assay: as above
[12] = target: T4, NNDP52 (N-terminal truncated region of NDP52, amino acid residues 1-190) (UniProt Q13137 1-190); assay: MST
T4 chain: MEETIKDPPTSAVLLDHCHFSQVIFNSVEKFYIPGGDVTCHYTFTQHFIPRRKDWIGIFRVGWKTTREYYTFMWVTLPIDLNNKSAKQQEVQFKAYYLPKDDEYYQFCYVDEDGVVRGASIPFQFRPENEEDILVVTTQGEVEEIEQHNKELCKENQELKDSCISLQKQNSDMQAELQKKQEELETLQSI

[13] = label: 3' FAM (called FITC in Methods) on strand 1 for fluorescence
[14] = label: 3' FAM (called FITC in Methods) on strand 1

B1: ZFs (the two zinc finger domains of NDP52, amino acid residues 380-446) (domain or fragment, UniProt Q13137 380-446, looked up)
chain: YSGIQESSSPSPLSIKKCPICKADDICDHTLEQQQMQPLCFNCPICDKIFPATEKQIFEDHVFCHSL
notes: NDP52/CALCOCO2, zinc finger domains ZF1 and ZF2, amino acid residues 380-446; also called ZFs domain; source: E. coli BL21 DE3, purified (HisTrap FF, Superdex 200 SEC)
B1 was tested, and the Kd [1] was 180 ± 17 nM and the “stoichiometry N” value [2] was 2 and 3.

B2: NNDP52 (N-terminal truncated region of NDP52, amino acid residues 1-190) (domain or fragment, UniProt Q13137 1-190, looked up)
chain: MEETIKDPPTSAVLLDHCHFSQVIFNSVEKFYIPGGDVTCHYTFTQHFIPRRKDWIGIFRVGWKTTREYYTFMWVTLPIDLNNKSAKQQEVQFKAYYLPKDDEYYQFCYVDEDGVVRGASIPFQFRPENEEDILVVTTQGEVEEIEQHNKELCKENQELKDSCISLQKQNSDMQAELQKKQEELETLQSI
notes: NDP52/CALCOCO2, SKICH domain and part of the coiled-coil region, amino acid residues 1-190; also called N-terminal region of NDP52; source: E. coli BL21 DE3, purified (HisTrap FF, Superdex 200 SEC)
B2 was tested, and the “stoichiometry N” value [2] was 2 and the Kd [3] was 170 nM.

B3: ds40 (dsDNA)
DNA 1: TTAGTTGTTCGTAGTGCTCGTCTGGCTCTGGATTACCCGC
DNA 2: GCGGGTAATCCAGAGCCAGACGAGCACTACGAACAACTAA
In the case of B3, the Kd [4] is reported as under 100 nM, the Kd [5, 13] is reported as under 100 nM and the binding result [6, 13] is reported as “binds”.

B4: ds15 (dsDNA)
DNA 1: TTAGTTGTTCTCTGG
DNA 2: CCAGAGAACAACTAA
With B4 the Kd [5, 14] was under 100 nM and the binding result [6, 14] was “binds”.

B5: CoCoA (recombinant) (natural protein, UniProt Q9P1Z2 1-691, looked up)
chain: MEESPLSRAPSRGGVNFLNVARTYIPNTKVECHYTLPPGTMPSASDWIGIFKVEAACVRDYHTFVWSSVPESTTDGSPIHTSVQFQASYLPKPGAQLYQFRYVNRQGQVCGQSPPFQFREPRPMDELVTLEEADGGSDILLVVPKATVLQNQLDESQQERNDLMQLKLQLEGQVTELRSRVQELERALATARQEHTELMEQYKGISRSHGEITEERDILSRQQGDHVARILELEDDIQTISEKVLTKEVELDRLRDTVKALTREQEKLLGQLKEVQADKEQSEAELQVAQQENHHLNLDLKEAKSWQEEQSAQAQRLKDKVAQMKDTLGQAQQRVAELEPLKEQLRGAQELAASSQQKATLLGEELASAAAARDRTIAELHRSRLEVAEVNGRLAELGLHLKEEKCQWSKERAGLLQSVEAEKDKILKLSAEILRLEKAVQEERTQNQVFKTELAREKDSSLVQLSESKRELTELRSALRVLQKEKEQLQEEKQELLEYMRKLEARLEKVADEKWNEDATTEDEEAAVGLSCPAALTDSEDESPEDMRLPPYGLCERGDPGSSPAGPREASPLVVISQPAPISPHLSGPAEDSSSDSEAEDEKSVLMAAVQSGGEEANLLLPELGSAFYDMASGFTVGTLSETSTGGPATPTWKECPICKERFPAESDKDALEDHMDGHFFFSTQDPFTFE
notes: CoCoA, member of the CALCOCO family, recombinant; source: E. coli BL21 DE3, purified (HisTrap FF, Superdex 200 SEC)
In the case of B5, the Kd [1] is reported as 85 nM and the “stoichiometry N” value [2] is reported as 2.

B6: NDP52-FL (full-length NDP52/CALCOCO2), Q13137 1-446 (natural protein)
chain: MEETIKDPPTSAVLLDHCHFSQVIFNSVEKFYIPGGDVTCHYTFTQHFIPRRKDWIGIFRVGWKTTREYYTFMWVTLPIDLNNKSAKQQEVQFKAYYLPKDDEYYQFCYVDEDGVVRGASIPFQFRPENEEDILVVTTQGEVEEIEQHNKELCKENQELKDSCISLQKQNSDMQAELQKKQEELETLQSINKKLELKVKEQKDYWETELLQLKEQNQKMSSENEKMGIRVDQLQAQLSTQEKEMEKLVQGDQDKTEQLEQLKKENDHLFLSLTEQRKDQKKLEQTVEQMKQNETTAMKKQQELMDENFDLSKRLSENEIICNALQRQKERLEGENDLLKRENSRLLSYMGLDFNSLPYQVPTSDEGGARQNPGLAYGNPYSGIQESSSPSPLSIKKCPICKADDICDHTLEQQQMQPLCFNCPICDKIFPATEKQIFEDHVFCHSL
For B6, the stoichiometry N [7] was 2 and 3, the Kd [8] was 210 nM and the stoichiometry N [9] was 2 and 3 and 4. It also gave a percent of molecules in an oligomeric state [10] of 15% and a stoichiometry N [10] of 2.

B7: CNDP52 (C-terminal region of NDP52, amino acid residues 365-446) (domain or fragment, UniProt Q13137 365-446, looked up)
chain: EGGARQNPGLAYGNPYSGIQESSSPSPLSIKKCPICKADDICDHTLEQQQMQPLCFNCPICDKIFPATEKQIFEDHVFCHSL
notes: NDP52/CALCOCO2, a section of the coiled-coil and both zinc finger domains, amino acid residues 365-446; source: E. coli BL21 DE3, purified (HisTrap FF, Superdex 200 SEC)
With B7 the Kd [1] was 50 ± 6 nM, the “stoichiometry N” value [11] was 2 and the “stoichiometry N” value [2] was 3. For the same binder, the Kd [12] was 110 nM.
